# According to the supplement of paper PMC10567573:
# ± gives the standard deviation.
# Experiment: protein stability index of a GFP-peptide fusion (GPS, HEK-293T) (PSI 1-6); higher = more stable
# [1] = treatment: DMSO, c terminus: a fixed tail appended
# [2] = treatment: MLN4924 1 uM, 8 h, c terminus: a fixed tail appended
# [3] = treatment: DMSO, c terminus: native
# [4] = treatment: MLN4924 1 uM, 8 h, c terminus: native
# 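Further: 24-mer peptide tiles fused after GFP, lentivirally expressed, FACS-sorted into six equal bins by GFP/DsRed ratio, decoded by Illumina sequencing, PSI is the read-weighted mean bin number.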
Sequence,protein stability index [1],protein stability index [2],protein stability index [3],protein stability index [4]
CGADVNVRDSDDNSPLHIAALNNH [FEM1C],2.9 ± 0.34,2.83 ± 0.24,,
CPIDQHHRNQCQYCRLKKCLKVGM [NR2F2],2.97 ± 0.038,3.36 ± 0.36,,
LLEGQDAKMAGIGIREASSGGGGS [KRT15],5.09 ± 0.14,4.87 ± 0.2,,
GEEPVPHQQVEEALSFTLLGSAPL [NEK8],4.33 ± 0.22,4.32 ± 0.29,,
CAVLLSAVQAQAGWLQHDFGHLSV [FADS1],3.25 ± 0.5,3.3 ± 0.65,,
PVAQSTDAIRGKVGYTRGLHVWQI [SPSB1],2.15 ± 0.13,2.21 ± 0.17,,
PDPEPPPVTPQVGEGRKSRKFSRL [SMG5],3.98 ± 0.27,4.14 ± 0.45,,
ELRLQSEAFKKHSLDLLSKERELN [CCDC89],3.8 ± 0.2,3.69 ± 0.42,,
PPVVAHYDMSDTNSDPEVVNVDNL [C18orf25],5.43 ± 0.18,5.46 ± 0.31,,
MGSQHSAAARPSSCRRKQEDDRDG [TMEM106C],5.22 ± 0.15,5.4 ± 0.15,,
APATTSSWEVVRNPLIASSFSLVK [C22orf31],2.91 ± 0.24,2.96 ± 0.1,,
QSYFKTIEDFQQKILLTKSENARL [KRT36],3.05 ± 0.42,2.77 ± 0.23,,
FWEEHKASLGREESRAPSPLLHKD [CBY2],4.61 ± 0.17,4.71 ± 0.21,,
PSPVRAPAPSPAKEERKTEVVMNS [PALM],5.35 ± 0.36,5.53 ± 0.13,,
QRTIMKPLEYQFKSQIMSLSHSPQ [TLE6],2.89 ± 0.26,3.2 ± 0.23,,
TPPHLTSAMAENILAAACESETRK [NOL4L],4.16 ± 0.47,4.35 ± 0.2,,
GYQRKCYFISTVKRSWTSAQNACS [CD69],2.46 ± 0.66,1.85 ± 0.59,,
GQVLHFENVKDVPFGFQTVTSDVN [SERPINB5],3.85 ± 0.36,3.84 ± 0.42,,
KVIERGERLDELQDKSESLSDNAT [VAMP4],5.38 ± 0.13,5.33 ± 0.18,,
TKLSAQSAQYSQQLQAARNEYLLN [FCHSD1],3.19 ± 0.055,3.33 ± 0.18,,
MYTPAYGDFDFDEVKFPNASDMFR [MYORG],3.1 ± 0.3,3.16 ± 0.26,,
RNLSYTCRANRNCPIDQHHRNQCQ [NR2F2],3.32 ± 0.1,3.36 ± 0.24,,
ENAGGSPSPEPAGRRAALYVHWPY [RSAD1],3 ± 0.4,3.23 ± 0.34,,

Sequence,protein stability index [1],protein stability index [2],protein stability index [3],protein stability index [4]
RYTFAPSVSLNKTARPFGAPPPAD [PDLIM7],3.34 ± 0.2,3.55 ± 0.21,,
VLIFKSILFLPCLRKKILKIRHGW [STEAP1],2.16 ± 0.51,2.38 ± 0.25,,
EPPPKSGPSLVPGKTPTVRAALIC [CD207],3 ± 0.15,3 ± 0.23,,
STGEVYCRVPNSGKDEIEAAVKAA [ALDH8A1],4.93 ± 0.4,4.94 ± 0.32,,
FSPNSPQFNVSGPGLLEEDNQWMT [NECAB1],3.23 ± 0.34,3.58 ± 0.3,,
DPQLEIAYRGNCKDVSRCVAERKY [SMOC2],4.04 ± 0.32,4.12 ± 0.11,,
MGQCRSANAEDAQEFSDVERAIET [S100A14],4.99 ± 0.32,5.15 ± 0.2,,
SVILNHMAREHAFNIGLPDNIVNC [ZNF277],1.98 ± 0.2,2.22 ± 0.45,,
VCTKYNLRITSGVVVCQCGLSIPS [RPAIN],2.56 ± 0.5,2.45 ± 0.55,,
NSIKNEKLEWAIDEDELRKSLSEL [PSD2],4.81 ± 0.15,4.72 ± 0.079,,
DGNSLLSSIECYDPIIDSWEVVTS [KLHL12],3.29 ± 0.33,3.47 ± 0.47,,
VLEDNIIVSEVQFVESSGGGSSAV [BRF1],3.75 ± 0.21,3.89 ± 0.27,,
ITTPIIDTFKVPKEMFTVGCCVFA [SLC6A17],2.67 ± 0.59,2.86 ± 0.55,,
PSSMDLLIQDSPDSSTSPKGKQPT [NANOGP8],5.2 ± 0.2,5.3 ± 0.18,,
YDVKYLMKSCKNLKGGLQEVAEQL [CNOT7],2.61 ± 0.43,2.98 ± 0.33,,
IAQDTCTTTDHSSNPGPVPGSSSG [SPAG8],5.23 ± 0.44,5.26 ± 0.23,,
KMSLYSEADSGYGSYGGFASAPTT [TRIM9],3.15 ± 0.36,3.18 ± 0.12,,
FEEYALVNQDILENKESWDKILAL [PRIM1],3.3 ± 0.31,3.6 ± 0.45,,
ELNFISVFWPQLPNGLEAAYEFAD [MMP1],2.45 ± 0.47,2.15 ± 0.59,,
HCMLVSNRVSWWGSTLAMLQRLKE [ZBED1],3.29 ± 0.18,3.46 ± 0.37,,
LLLDCGAEVNAVDNEGNSALHIIV [FEM1B],2.39 ± 0.45,2.24 ± 0.42,,
VQYLQHLGTENLHLIFSYSVWVLR [VPS39],3.23 ± 0.39,2.96 ± 0.41,,
KMTLTQVSTWFANARRRLKKENKM [IRX6],2.83 ± 0.29,3.02 ± 0.23,,

Sequence,protein stability index [1],protein stability index [2],protein stability index [3],protein stability index [4]
PSQRLVQNCLWTLRNLSDAATKQE [CTNNB1],3.31 ± 0.18,3.19 ± 0.25,,
YIGFYGKETTNTCILKCNLCSVNI [PDS5B],2.98 ± 1.6,2.96 ± 1,,
IEEACYAQTIPTKDRLEGLLAFKE [AUH],3.73 ± 0.46,3.55 ± 0.69,,
CFYRGYTSGVAAVQDWYHFHYVDI [SCNN1D],3.06 ± 0.86,2.92 ± 0.75,,
LPCDLPKVVSRAENLSVPVIGALL [LPCAT4],2.29 ± 0.37,2.27 ± 0.31,,
YSRGYRNRRSSRETREYAPPSRGH [RBMY1A1],4.38 ± 0.27,4.76 ± 0.23,,
SGGSSSSFRAGSKGLSGGFGSRSL [KRT71],3.32 ± 0.18,3.14 ± 0.13,,
QGKDWGFKKFIRRDFLLDEANGLL [SPOPL],2.72 ± 0.27,2.31 ± 0.23,,
SLGPALSTGPRGLCAMPQTGDAF [VENTX],,,2.44 ± 0.12,2.3 ± 0.11
ERTWPPPAMSPYWRTWMTITQSWQ [C22orf15],2.31 ± 0.58,1.94 ± 0.32,,
AALRLHRLLRDSEAFCHANCSGPA [P3H4],2.1 ± 0.1,2.27 ± 0.27,,
VVEATHMCMVMRGVQKMNSKTVTS [GCH1],2.82 ± 0.31,3 ± 0.45,,
TLVMFQSLGERMNTFVRYLLKRIK [KCNK9],3 ± 0.54,2.73 ± 0.23,,
LPACEFEMGGSEGIVESIQIMKEG [NETO1],4.92 ± 0.26,4.74 ± 0.3,,
SSNRIRHLRTHTGERPYKCSECGE [ZNF263],4.28 ± 0.089,4.44 ± 0.24,,
SFEDDCSQSLCLNKPTMSFKDYIQ [ETS2],3.52 ± 0.15,3.67 ± 0.28,,
RISSPQVEEGDSRFLANEVLQENY [WEE1],4.83 ± 0.44,4.91 ± 0.13,,
LYDLRADREVAIYSKESIIFGASS [GNB5],2.51 ± 0.27,2.72 ± 0.27,,
YLPKNTHPFLYLSLEISPQNVDVN [MLH1],3.23 ± 1.1,2.09 ± 0.3,,
AWQYGPCTGITRLQRWCRAKHMGL [POLD4],2.15 ± 0.12,2.3 ± 0.42,,
PHRMDRRLLALIYLAHASDVLENA [GOLPH3],2.55 ± 0.27,2.34 ± 0.21,,
CNVDLLKIIQLGLTFMNEQGEYPP [CNOT7],2.96 ± 1.3,2.48 ± 0.18,,
MVSNPVHGLPFLPGTSFKDSTKTA [EFHC1],3.87 ± 0.24,3.97 ± 0.25,,

Sequence,protein stability index [1],protein stability index [2],protein stability index [3],protein stability index [4]
LLAPGEQSLPCTERKPAATARLSR [KISS1],4.46 ± 0.37,4.72 ± 0.18,,
CYTFSVLITFDNKAHSGRIPISLE [MCOLN1],3.58 ± 0.41,3.3 ± 0.62,,
TRNVQSVSIIDTELKVKDSQPIDL [TRIP13],4.32 ± 0.16,4.55 ± 0.19,,
IWVPIKIGALTYFAQADALKGTLV [ACSBG2],2.76 ± 0.71,3.08 ± 0.67,,
FVGAIFNGLTLLILGVIGLFTIPL [RTN2],2.02 ± 0.11,2.27 ± 0.42,,
VRSIQPEEKERIGQFVFARDAKAA [AASDHPPT],4.13 ± 0.31,4.39 ± 0.27,,
HEEVVEKVKKSGSRVMFLLVDKET [PDZK1],3.97 ± 0.17,4.25 ± 0.23,,
STICFGQGAARGFKSNKKKTKQC [ZNF511],,,4.86 ± 0.14,4.71 ± 0.32
QALQAGPEGARRGLGVLRALGSRG [FANCE],4.38 ± 0.33,4.31 ± 0.26,,
RAVNSLSMENANQENEEKEQVANK [BEX1],5.52 ± 0.24,5.5 ± 0.34,,
VLASFILDDGEIDEIRWKYHSDTT [IQUB],2.5 ± 0.23,2.18 ± 0.3,,
YRPLKQELQGLDYCKPTRLDLLLD [SPSB1],2.77 ± 0.29,2.6 ± 0.32,,
LRVLPNLPCVVQEGAIVMARGRHV [PYCR3],2.63 ± 0.37,2.73 ± 0.22,,
TPEDSDPDHFDTAILFTRQDLCGV [ADAMTS4],4.15 ± 0.092,4.18 ± 0.17,,
QMREAFATAFSKLKPESSQQPGQD [ZBED1],4.57 ± 0.19,4.62 ± 0.094,,
TLMGKLKLKNTVTIQQEKLLAEKE [SASS6],3.406 ± 0.012,3.39 ± 0.58,,
TIYCSLQLQALNRRFQQTQYLALP [DLX1],2.53 ± 0.48,2.42 ± 0.62,,
TPLDAFRMTSAAHYYPKLMSIMGN [GFOD1],2.12 ± 0.33,2.06 ± 0.093,,
NGVLGLSRLLFFLLGFLRIRVRGQ [LPCAT4],2.2 ± 0.34,2.44 ± 0.25,,
VAITVEVKQEEDIKPPPPLVLNSQ [RAD54B],3 ± 0.26,2.98 ± 0.24,,
